The values below come from PMC8998336, “Structural and Biophysical Insights into SPINK1 Bound to Human Cationic Trypsin” (International Journal of Molecular Sciences, 2022).

Common to all, as to settings: both partners purified
Assay [1] addresses T1, human cationic trypsin (TRY1) p.S200A (human, UniProt P07477 24-247, p.S200A).
T1 construct: human cationic trypsin (TRY1); cloned as amino acids 16-247 (signal peptide removed); His6-tag and propeptide removed after enterokinase digestion; the final structure contains amino acids 24-247; catalytic serine replaced by alanine; also called TRY1 S200A; not shown: His6, N-terminal, cleaved
Put plainly: ITC; MicroCal PEAQ-ITC, 37 °C; TRY1 p.S200A in the cell at 5-10 µM, SPINK1 in the syringe at 50-100 µM; 20 mM Hepes pH 7.4, 150 mM NaCl, 2 mM CaCl2; one-site binding model.

For assay [2], the target named is T2, human cationic trypsin (TRY1) WT (human, UniProt P07477 24-247).
T2 construct: human cationic trypsin (TRY1); cloned as amino acids 16-247 (signal peptide removed); His6-tag and propeptide removed after enterokinase digestion; not shown: His6, N-terminal, cleaved
Put plainly: enzyme inhibition assay (Morrison tight-binding fit); 100 pM TRY1, 1 mM L-BAPA, SPINK1 15.625-2000 pM; 20 mM Hepes pH 7.4, 150 mM NaCl, 2 mM CaCl2, 0.05% Tween20; 37 °C; initial rates after a 5 h lag phase; Morrison's quadratic equation.

Assay [3] deals with T1, human cationic trypsin (TRY1) p.S200A. Put plainly: SPR; BIAcore T200, TRY1 p.S200A amine-coupled to a CM5 chip; SPINK1 3.125-50 nM, single-cycle kinetics, 37 °C, 50 µL/min; 20 mM Hepes pH 7.4, 150 mM NaCl, 2 mM CaCl2, 0.05% Tween20; 1:1 Langmuir model. On the technique in general: In SPR one partner is held on a chip, and binding of the other changes the refractive index at the surface.

As a reminder, the Ki is a dissociation constant, usually derived from enzyme kinetics or from competition with a known ligand. What is called kon is a measure of how fast the partners come together. High values mean faster complex formation, low ones slower complex formation.

Changes are numbered by the printed parent chain. In names and notes the source's numbering stands. Where only a bound is given, the exact number is not on record here.

B1: serine protease inhibitor Kazal-type 1 (SPINK1) WT (natural protein, human, UniProt P00995 24-79, looked up)
chain: DSLGREAKCYNELNGCTKIYDPVCGTDGNTYPNECVLCFENRKRQTSILIQKSGPC
notes: N-terminal truncation removes the signal peptide; pET47b construct with His6-tag and HRV3C cleavage site; source: SHuffle T7 Express E. coli, purified (HisTrap HP, HRV3C digestion, His6-tag removed on the same HisTrap column); not shown: His6, N-terminal, cleaved
In assay [1], B1 displayed a dH of around -10 kcal/mol. Besides, the Ki in assay [2] was below 50 pM. In assay [3], the “half-life t1/2 of the complex” value is around 1 h and the kon came to 250000 M⁻¹ s⁻¹.

B2: serine protease inhibitor Kazal-type 1 (SPINK1) p.N34S (natural protein, human, UniProt P00995 24-79, looked up)
chain: B1 chain with N11S
notes: made by site directed mutagenesis; pET47b construct with His6-tag and HRV3C cleavage site; also called SPINK1 N34S; p.N34S mutant; source: SHuffle T7 Express E. coli, purified (HisTrap HP, HRV3C digestion, His6-tag removed on the same HisTrap column); not shown: His6, N-terminal, cleaved
On to B2, for which the dH in assay [1] was around -10 kcal/mol. The Ki in assay [2] was below 50 pM. Further, in assay [3], the “half-life t1/2 of the complex” value is around 1 h and the kon was determined as 250000 M⁻¹ s⁻¹.
